Experimental findings from patent US6365154 (GlaxoSmithKline, dated 2002) are described below.

In test [1] the target is Tie2 receptor on HEL cells or HUVECs (human, UniProt Q02763 23-1124). As to the kind of experiment: cell-based or functional assay.
Test [2] addresses T1, recombinant Tie2 extracellular domain-Fc fusion (UniProt Q02763 23-748).
T1 construct: extracellular domain; also called Tie2-Fc; Tie2 receptor-Fc fusion; not shown: It is probably human IgG Fc: human IgG1 was added to remove anti-Fc mAbs, and the fusion was ca
As to the kind of experiment: BIAcore SPR; mAb captured on rabbit anti-mouse IgG Fc, Tie2-Fc injected. As to the method: The affinity of the purified mAbs was measured in the BIAcore. Using a flow rate of 10 ul/min, the mAb (diluted in HBS buffer) was injected over a rabbit anti-mouse IgG Fc surface, followed by buffer flow and the RU recorded. Tie2-Fc diluted in HBS buffer was then injected for 120s followed by buffer flow for 240s and regeneration of the sensor chip surface with an injection of 15 ul 0.1 M phosphoric acid. BIAcore software was used for association and dissociation-phase analysis. The murine monoclonal antibodies bound to soluble monomeric Tie2 receptor. The on-rates ($kass$) and off-rates ($kdiss$) were calculated.
In general terms: SPR reads the build-up and loss of mass on a sensor chip optically.

T1 sequence (Q02763 23-748): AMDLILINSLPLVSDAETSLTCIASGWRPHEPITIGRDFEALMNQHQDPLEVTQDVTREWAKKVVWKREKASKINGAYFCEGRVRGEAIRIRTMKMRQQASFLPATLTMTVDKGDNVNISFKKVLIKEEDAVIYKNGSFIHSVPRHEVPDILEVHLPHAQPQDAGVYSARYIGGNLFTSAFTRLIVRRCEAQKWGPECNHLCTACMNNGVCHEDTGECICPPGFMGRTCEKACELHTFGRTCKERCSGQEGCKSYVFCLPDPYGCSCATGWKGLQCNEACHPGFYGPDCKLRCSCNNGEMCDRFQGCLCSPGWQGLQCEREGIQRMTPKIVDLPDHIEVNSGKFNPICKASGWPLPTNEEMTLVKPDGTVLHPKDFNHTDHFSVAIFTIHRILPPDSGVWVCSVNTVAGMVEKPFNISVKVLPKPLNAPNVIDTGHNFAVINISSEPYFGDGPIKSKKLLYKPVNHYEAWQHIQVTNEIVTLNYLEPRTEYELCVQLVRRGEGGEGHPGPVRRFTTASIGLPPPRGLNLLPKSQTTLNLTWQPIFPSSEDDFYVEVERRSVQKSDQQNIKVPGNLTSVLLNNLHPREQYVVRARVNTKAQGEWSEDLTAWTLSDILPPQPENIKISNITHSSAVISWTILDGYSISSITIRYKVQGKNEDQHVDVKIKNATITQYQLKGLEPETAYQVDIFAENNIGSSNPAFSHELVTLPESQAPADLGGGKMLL
Tie2 receptor on HEL cells or HUVECs, sequence (Q02763 23-1124): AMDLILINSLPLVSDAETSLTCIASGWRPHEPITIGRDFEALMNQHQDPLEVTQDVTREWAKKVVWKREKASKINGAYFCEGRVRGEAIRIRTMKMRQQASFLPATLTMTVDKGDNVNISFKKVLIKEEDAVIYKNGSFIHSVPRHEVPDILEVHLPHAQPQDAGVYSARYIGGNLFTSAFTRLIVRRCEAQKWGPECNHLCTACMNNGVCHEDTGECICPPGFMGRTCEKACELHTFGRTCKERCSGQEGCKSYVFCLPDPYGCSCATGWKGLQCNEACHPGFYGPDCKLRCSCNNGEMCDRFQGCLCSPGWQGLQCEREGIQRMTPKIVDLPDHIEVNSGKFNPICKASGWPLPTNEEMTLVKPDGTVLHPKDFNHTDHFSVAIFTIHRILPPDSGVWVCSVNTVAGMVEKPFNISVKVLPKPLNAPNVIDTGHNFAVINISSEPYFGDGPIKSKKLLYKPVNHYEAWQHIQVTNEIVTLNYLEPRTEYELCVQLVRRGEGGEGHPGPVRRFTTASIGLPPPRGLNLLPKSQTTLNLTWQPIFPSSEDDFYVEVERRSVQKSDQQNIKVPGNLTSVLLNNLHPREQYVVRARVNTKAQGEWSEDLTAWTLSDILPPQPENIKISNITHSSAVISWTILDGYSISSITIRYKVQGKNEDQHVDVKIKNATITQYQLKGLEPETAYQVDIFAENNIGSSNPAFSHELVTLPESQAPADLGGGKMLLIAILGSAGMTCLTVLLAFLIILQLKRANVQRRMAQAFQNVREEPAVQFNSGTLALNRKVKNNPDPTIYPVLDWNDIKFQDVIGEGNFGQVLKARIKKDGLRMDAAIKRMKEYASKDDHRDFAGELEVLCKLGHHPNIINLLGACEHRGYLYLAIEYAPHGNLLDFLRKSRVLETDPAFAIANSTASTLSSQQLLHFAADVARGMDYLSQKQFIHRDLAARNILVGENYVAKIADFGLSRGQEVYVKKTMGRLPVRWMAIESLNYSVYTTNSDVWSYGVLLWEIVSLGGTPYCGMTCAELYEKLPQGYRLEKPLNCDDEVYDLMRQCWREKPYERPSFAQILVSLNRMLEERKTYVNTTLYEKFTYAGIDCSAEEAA

B1: murine monoclonal antibody 15B8 (antibody, V domains shown)
VH: QVQLQQPGVVLVMPGASVKLSCKASGYTFASYWMHWVKQRPGQGLEWIGEIDPSDSYRNYNQKFKGKATLTVDKSSSTVNMQLSSLTSEDSAVYYCAKTSGIGRAMDYWGQGTSVTVSS
VL: DIQMIQSPASLSASVGETVTITCRASENIYSFVTWYQQKQGKSPQLLVFNAKNLVEGVPSSFSGSGSGTQFSLKIDSLQPEDFGTYYCQHHYSIPYTFGGGTKLEMR
notes: Constant regions are mouse IgG heavy and kappa light, going by the PCR primers; also called mAb 15B8; mAb 1 B 8
The Kd is a measure of binding affinity in units of concentration. On to B1, for which, in test [1], the “Tie2 receptor tyrosine phosphorylation (immunoprecipitation and anti-phosphotyrosine Western blot, ratio to Tie-2 staining)” value was greater than 2 fold over basal. Moreover, the Kd in test [2] was determined as 0.24 nM.

B2: murine monoclonal antibody 13H10 (antibody, V domains shown)
VH: QIQLVQSGPELKKPGETVKISCKASGYTFTDFSIHWVKQAPGKGLKWMGWINTETGETTYAEDFKGRFAFSLETSASTAYLQINNLKNEDTATYFCSRRYDYDTWFAYWGQGTLVTVS
VL: DIVMTQAALSVPVTPGESVSISCRSSSSLLHRNGNTYLYWFLQRPGQSPQLLIYRMSNLASGVPDRFSGSGSGTAFTLRISRVEAEDVGVYYCMQRLEYPFTFGGGTKLEIKR
notes: Constant regions are mouse IgG heavy and kappa light, going by the PCR primers; also called mAb 13H10; mAb 13H 10
Take B2: in test [2], the Kd amounted to 3.1 nM.
